From PMC2116221 come the findings set out here.

For the experiment, the target named is taxol-stabilized microtubules (bovine brain tubulin) (bovine) (UniProt Q6B856). As to the kind of experiment: co-sedimentation.
UniProt Q6B856, sequence (Q6B856 whole entry, looked up): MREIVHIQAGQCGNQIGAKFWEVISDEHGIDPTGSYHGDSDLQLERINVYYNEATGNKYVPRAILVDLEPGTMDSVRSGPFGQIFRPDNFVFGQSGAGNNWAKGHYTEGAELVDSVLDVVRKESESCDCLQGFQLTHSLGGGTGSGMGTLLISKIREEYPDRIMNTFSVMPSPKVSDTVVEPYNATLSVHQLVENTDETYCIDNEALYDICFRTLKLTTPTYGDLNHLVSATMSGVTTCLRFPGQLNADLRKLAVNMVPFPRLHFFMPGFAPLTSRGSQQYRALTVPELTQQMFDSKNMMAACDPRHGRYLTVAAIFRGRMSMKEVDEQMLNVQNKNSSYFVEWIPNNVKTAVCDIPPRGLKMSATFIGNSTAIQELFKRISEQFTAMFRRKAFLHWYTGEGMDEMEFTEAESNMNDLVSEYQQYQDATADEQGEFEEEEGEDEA

Take “CHO1 antigen, polypeptide of ~100 kD (HeLa cytoplasm) (from UniProt Q02241-2 1-856) (natural protein)”: the percent extracted from microtubules by 0.5 M NaCl turned out to be 60%.

In turn, “CHO1 antigen, polypeptide of ~115 kD (HeLa cytoplasm) (from UniProt Q02241 1-960) (natural protein)” registered a percent extracted from microtubules by 0.5 M NaCl of 60%.
